Assay results published in paper PMC11107207, “Utility of protein–protein binding surfaces composed of anti-parallel alpha-helices and beta-sheets selected by phage display” (The Journal of Biological Chemistry, 2024).

Molecular target: T1, APCDD1 bait fused to the C terminus of Fc (mouse, UniProt Q3U128 27-492)
T1 construct: mouse APCDD1, entire extracellular domain, fused to the C terminus of Fc; secreted with the mouse FZD8 signal peptide; also called Fc-bait; source: HEK293T, transiently transfected, serum-free conditioned medium; captured on proteinG; not shown: Fc (human IgG1), N-terminal, kept
T1 sequence (Q3U128 27-492): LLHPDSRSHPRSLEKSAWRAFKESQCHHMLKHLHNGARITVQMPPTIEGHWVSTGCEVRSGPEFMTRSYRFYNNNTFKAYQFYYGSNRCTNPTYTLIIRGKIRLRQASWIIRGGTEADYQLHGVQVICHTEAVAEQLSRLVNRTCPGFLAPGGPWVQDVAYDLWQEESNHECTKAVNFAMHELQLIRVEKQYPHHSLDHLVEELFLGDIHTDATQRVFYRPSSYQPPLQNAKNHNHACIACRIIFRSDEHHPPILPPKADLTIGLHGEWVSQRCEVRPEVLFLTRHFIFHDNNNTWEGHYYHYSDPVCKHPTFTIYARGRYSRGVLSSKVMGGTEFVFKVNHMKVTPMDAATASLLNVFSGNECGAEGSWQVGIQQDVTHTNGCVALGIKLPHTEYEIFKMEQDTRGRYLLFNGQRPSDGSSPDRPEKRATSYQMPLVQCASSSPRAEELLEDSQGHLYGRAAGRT
Assay: SPR; Biacore, single-cycle kinetics/affinity, five-point dose response; bait-Fc on a proteinG chip; CC4-MBP in the mobile phase; done at Cayman Chemical
Conditions: both partners purified

Kd: > 50 µM
B1: WT CC4-MBP (domain or fragment, mouse)
chain: PMRNPTDSLYCCDRAEDHACQNACKRILMSKKTEMEIVDGLIEGCKTQPLPQDPLWQCFLESSQS
notes: mouse RECK, CC domain 4 (CC4), a 4-helix bundle of 65 amino acids; also called RECK(CC4); source: E. coli SHuffle, purified (Ni-NTA)
